T1: Ebola GPdTM (IBT Bioservices) (Ebola virus, UniProt Q05320 33-650)
T1 sequence: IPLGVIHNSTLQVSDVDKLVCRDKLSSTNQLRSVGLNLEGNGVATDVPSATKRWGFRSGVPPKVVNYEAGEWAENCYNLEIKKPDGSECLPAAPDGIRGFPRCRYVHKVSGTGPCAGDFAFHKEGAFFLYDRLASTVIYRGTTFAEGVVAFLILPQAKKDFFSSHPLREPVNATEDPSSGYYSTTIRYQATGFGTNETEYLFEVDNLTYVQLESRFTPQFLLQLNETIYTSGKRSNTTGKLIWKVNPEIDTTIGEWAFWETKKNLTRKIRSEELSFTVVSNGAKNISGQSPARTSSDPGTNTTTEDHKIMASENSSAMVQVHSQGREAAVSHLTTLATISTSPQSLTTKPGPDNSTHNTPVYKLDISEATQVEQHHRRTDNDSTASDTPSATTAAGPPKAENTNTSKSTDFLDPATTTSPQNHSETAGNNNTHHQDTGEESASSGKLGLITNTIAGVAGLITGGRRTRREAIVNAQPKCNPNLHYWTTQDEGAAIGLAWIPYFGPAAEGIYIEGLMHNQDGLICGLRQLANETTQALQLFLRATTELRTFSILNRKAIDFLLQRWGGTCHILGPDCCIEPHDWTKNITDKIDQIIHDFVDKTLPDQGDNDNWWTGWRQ

T2: Ebola virus glycoprotein on Ebola virus Mayinga 1976 strain (Zaire Ebola virus, Mayinga 1976 strain, UniProt Q05320 33-676)
T2 sequence: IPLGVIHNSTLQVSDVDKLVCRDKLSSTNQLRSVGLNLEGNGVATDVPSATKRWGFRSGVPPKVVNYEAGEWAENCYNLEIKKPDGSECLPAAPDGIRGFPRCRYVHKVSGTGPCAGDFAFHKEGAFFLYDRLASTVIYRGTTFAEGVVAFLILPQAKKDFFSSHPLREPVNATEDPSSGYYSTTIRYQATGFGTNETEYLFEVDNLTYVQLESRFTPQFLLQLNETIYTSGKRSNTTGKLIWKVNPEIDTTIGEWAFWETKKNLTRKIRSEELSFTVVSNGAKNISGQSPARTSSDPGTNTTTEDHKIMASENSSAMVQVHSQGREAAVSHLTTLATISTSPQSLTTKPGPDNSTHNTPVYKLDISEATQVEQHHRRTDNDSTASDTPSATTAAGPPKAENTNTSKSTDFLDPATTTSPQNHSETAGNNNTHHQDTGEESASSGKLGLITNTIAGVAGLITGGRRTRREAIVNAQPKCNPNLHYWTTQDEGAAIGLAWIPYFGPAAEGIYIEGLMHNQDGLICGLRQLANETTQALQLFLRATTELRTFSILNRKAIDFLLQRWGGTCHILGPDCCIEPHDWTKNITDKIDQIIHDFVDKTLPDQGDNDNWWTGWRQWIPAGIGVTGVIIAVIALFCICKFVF

T3: Ebola virus glycoprotein on Ebola virus Kikwit 1995 strain (Zaire Ebola virus, Kikwit 1995 strain, UniProt P87666 33-676)
T3 sequence: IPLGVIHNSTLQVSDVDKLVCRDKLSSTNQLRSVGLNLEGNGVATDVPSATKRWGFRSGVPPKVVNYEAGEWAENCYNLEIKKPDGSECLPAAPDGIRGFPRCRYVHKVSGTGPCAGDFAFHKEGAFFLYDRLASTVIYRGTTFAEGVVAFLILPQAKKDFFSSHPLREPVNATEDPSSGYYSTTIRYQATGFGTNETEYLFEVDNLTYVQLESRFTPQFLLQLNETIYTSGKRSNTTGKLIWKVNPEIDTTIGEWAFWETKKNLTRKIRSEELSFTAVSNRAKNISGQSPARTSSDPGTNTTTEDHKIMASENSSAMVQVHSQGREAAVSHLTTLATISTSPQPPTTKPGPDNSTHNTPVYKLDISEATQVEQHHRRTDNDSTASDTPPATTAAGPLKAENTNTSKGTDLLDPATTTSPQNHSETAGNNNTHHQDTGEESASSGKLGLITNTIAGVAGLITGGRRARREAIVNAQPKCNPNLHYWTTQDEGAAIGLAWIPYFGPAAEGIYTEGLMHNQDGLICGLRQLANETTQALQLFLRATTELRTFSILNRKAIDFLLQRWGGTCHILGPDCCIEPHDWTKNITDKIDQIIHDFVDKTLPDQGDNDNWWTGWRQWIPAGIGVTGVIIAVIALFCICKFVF


Assays:
[1] = target: T1, Ebola GPdTM (IBT Bioservices); test: ELISA, GPdTM coated at 1 µg/mL, anti-human IgG Fc-HRP detection
[2] = target: T2, Ebola virus glycoprotein on Ebola virus …; test: cell-based or functional assay
[3] = target: T3, Ebola virus glycoprotein on Ebola virus …; test: cell-based or functional assay
[4] = target: Ebola virus glycoprotein on Ebola virus Makona 2014 strain (Zaire Ebola virus, Makona 2014 strain); test: cell-based or functional assay

Binder	EC50 [1] [nM]	plaque reduction neutralization titre (Vero E6 cells, 200 pfu) [2] [µg/mL]	plaque reduction neutralization titre (Vero E6 cells, 200 pfu) [3] [µg/mL]	plaque reduction neutralization titre (Vero E6 cells, 200 pfu) [4] [µg/mL]
4G7.10 (antibody, V domains shown) VH: QVQLVQSGAEVKKPGSSVKVSCKASGSSFTGFSMNWVRQAPGQSLEWIGNIDTYYGGTTYNGKFKGRVTLTVDKSTSTAYMELSSLRSEDTAVYYCARSAYYGSTFAYWGQGTLVTVSS VL: DIQMTQSPSSLSASVGDRVTITCRASENIYSYLAWYQQKPGKSPKLLVYNAKTLIEGVPSRFSGSGSGTDFTFTISSLQPEDIATYFCQHHFGTPFTFGQGTKVEIK	0.12	–	–	–
4G7.9 (antibody, V domains shown) VH: QVQLVQSGAEVKKPGSSVKVSCKASGSSFTGFSMNWVRQAPGQSLEWIGNIDTYYGGTTYNGKFKGRVTLTVDKSTSTAYMELSSLRSEDTAVYYCARSAYYGSTFAYWGQGTLVTVSS VL: DIQMTQSPSSLSASVGDRVTITCRASENIYSYLAWYQQKPGKAPKLLVYNAKTLIEGVPSRFSGSGSGTDFTFTISSLQPEDIATYYCQHHFGTPFTFGQGTKVEIK	0.0997	1	1	1
4G7.2 (antibody, V domains shown) VH: QVQLVQSGAEVKKPGSSVKVSCKASGSSFTGFSMNWVRQAPGQGLEWMGNIDTYYGGTTYNGKFKGRVTITADKSTSTAYMELSSLRSEDTAVYYCARSAYYGSTFAYWGQGTLVTVSS VL: DIQMTQSPSSLSASVGDRVTITCRASENIYSYLAWYQQKPGKSPKLLVYNAKTLIEGVPSRFSGSGSGTDFTFTISSLQPEDIATYFCQHHFGTPFTFGQGTKVEIK	0.0952	–	–	–
4G7.3 (antibody, V domains shown) VH: QVQLVQSGAEVKKPGSSVKVSCKASGSSFTGFSMNWVRQAPGQGLEWMGNIDTYYGGTTYNGKFKGRVTITADKSTSTAYMELSSLRSEDTAVYYCARSAYYGSTFAYWGQGTLVTVSS VL: DIVMTQSPSSLSASVGDRVTITCRASENIYSYLAWYQQKPGKSPKLLVYNAKTLIEGVPSRFSGSGSGTQFSLTISSLQPEDIATYFCQHHFGTPFTFGSGTKVEIK	0.176	–	–	–
4G7.1 (antibody, V domains shown) VH: QVQLVQSGAEVKKPGSSVKVSCKASGSSFTGFSMNWVRQAPGQGLEWMGNIDTYYGGTTYNGKFKGRVTITADKSTSTAYMELSSLRSEDTAVYYCARSAYYGSTFAYWGQGTLVTVSS VL: DIQMTQSPSSLSASVGDRVTITCRASENIYSYLAWYQQKPGKAPKLLVYNAKTLIEGVPSRFSGSGSGTDFTFTISSLQPEDIATYYCQHHFGTPFTFGQGTKVEIK	0.182	–	–	–
4G7.11 (antibody, V domains shown) VH: QVQLVQSGAEVKKPGSSVKVSCKASGSSFTGFSMNWVRQAPGQSLEWIGNIDTYYGGTTYNGKFKGRVTLTVDKSTSTAYMELSSLRSEDTAVYYCARSAYYGSTFAYWGQGTLVTVSS VL: DIVMTQSPSSLSASVGDRVTITCRASENIYSYLAWYQQKPGKSPKLLVYNAKTLIEGVPSRFSGSGSGTQFSLTISSLQPEDIATYFCQHHFGTPFTFGSGTKVEIK	0.145	–	–	–
4G7.12 (antibody, V domains shown) VH: QVQLVQSGAEVKKPGSSVKVSCKASGSSFTGFSMNWVRQAPGQSLEWIGNIDTYYGGTTYNGKFKGRVTLTVDKSTSTAYMELSSLRSEDTAVYYCARSAYYGSTFAYWGQGTLVTVSS VL: DIVMTQSPSSLSASVGDRVTITCRASENIYSYLAWYQQKPGKSPKLLVYNAVTLIEGVPSRFSGSGSGTQFSLTISSLQPEDIATYFCQHHFGTPFTFGSGTKVEIK	0.0888	–	–	–
2G4.3 (antibody, V domains shown) VH: EVQLLESGGGLVQPGGSLRLSCVASGFTFSNYWMNWVRQAPGKGLEWLGFIRLKSNNYATHYSASVKGRFTISRDKSKSTLYLQMNTLQAEDSAIYYCTRGNGNYRAMDYWGQGTLVTVSS VL: DIVMTQSPSSLSASVGDRVTITCRASENIYSSLAWYQQKPGKSPQLLVYSATILADGVPSRFSGSGSGTQYTLTISSLQPEDFATYYCQHFWGTPYTFGGGTKVEIK	0.129	–	–	–
2G4.6 (antibody, V domains shown) VH: EVQLLESGGGLVQPGGSLRLSCVASGFTFSNYWMNWVRQAPGKGLEWLAEIRLKSNNYATHYSASVKGRFTISRDKSKSTLYLQMNTLQAEDSAIYYCTRGNGNYRAMDYWGQGTLVTVSS VL: DIVMTQSPSSLSASVGDRVTITCRASENIYSSLAWYQQKPGKSPQLLVYSATILADGVPSRFSGSGSGTQYTLTISSLQPEDFATYYCQHFWGTPYTFGGGTKVEIK	0.109	2	4	2
13C6.1 (antibody, V domains shown) VH: QLTLKESGPTLVKPTQTLSLTCTFSGFSLSTSGVGVGWFRQPPGKALEWLALIWWDDDKYYSPSLKSRLTITKDTSKNQVVLTMTNMDPVDTATYYCARRDPFGYDNAMGYWGQGTTVTVSS VL: DIVMTQSPSFLSASVGDRVTITCKASQNVGTAVAWYQQKPGKAPKLLIYSASNRYSGVPSRFSGSGSGTDFTLTISSLQPEDFATYFCQQYSSYPLTFGGGTKLEIK	0.136	> 50	> 50	> 50
2G4 wild type (parent mouse monoclonal antibody 2G4) (antibody, V domains shown) VH: EVQLQQSGGGLMQPGGSMKLSCVASGFTFSNYWMNWVRQSPEKGLEWVAEIRLKSNNYATHYAESVKGRFTISRDDSKRSVYLQMNTLRAEDTGIYYCTRGNGNYRAMDYWGQGTSVTVSS VL: DIVMTQSPASLSVSVGETVSITCRASENIYSSLAWYQQKQGKSPQLLVYSATILADGVPSRFSGSGSGTQYSLKINSLQSEDFGTYYCQHFWGTPYTFGGGTKLEIK	0.154	–	–	–
13C6 wild type (parent mouse monoclonal antibody 13C6) (antibody, V domains shown) VH: QLTLKESGPGILKPSQTLSLTCSLSGFSLSTSGVGVGWFRQPSGKGLEWLALIWWDDDKYYNPSLKSQLSISKDFSRNQVFLKISNVDIADTATYYCARRDPFGYDNAMGYWGQGTSVTVSS VL: DIVMTQSQKFMSTSVGDRVSLTCKASQNVGTAVAWYQQKPGQSPKLLIYSASNRYTGVPDRFTGSGSGTDFTLTISNMQSEDLADYFCQQYSSYPLTFGAGTKLELR	0.0747	–	–	–
4G7 wild type (parent mouse monoclonal antibody 4G7) (antibody, V domains shown) VH: EVQLQQSGPELEMPGASVKISCKASGSSFTGFSMNWVKQSNGKSLEWIGNIDTYYGGTTYNQKFKGKATLTVDKSSSTAYMQLKSLTSEDSAVYYCARSAYYGSTFAYWGQGTLVTVSS VL: DIVMTQSPASLSASVGETVTITCRASENIYSYLAWYQQKQGKSPQLLVYNAKTLIEGVPSRFSGSGSGTQFSLKINSLQPEDFGSYFCQHHFGTPFTFGSGTELEIK	0.0725	–	–	–

From patent US20210095007A1 (MIT, published 2021)
